Literature values in article PMC12634839.
pKd: −log10 of the molar value.

Target: FAM19A5 (Homo sapiens) (UniProt Q7Z5A7)
Assay: SPR

Sequence of UniProt Q7Z5A7 (Q7Z5A7 44-132): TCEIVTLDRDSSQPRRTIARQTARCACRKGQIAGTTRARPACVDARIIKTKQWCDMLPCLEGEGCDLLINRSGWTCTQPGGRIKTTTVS

- pKd: 10.49
Substance: LRRC4B 453-576 (from UniProt Q9NT99)
